Results from US6312941.

Experiments:
[1] = biological target: wild-type murine JAK2 (expressed in COS cells from pRK5) (murine)
[2] = biological target: wild-type murine JAK2 (expressed in COS cells from pRK5) (murine); remark: listed apart in the source

| tyrosyl phosphorylation of JAK2 (αMyc immunoprecipitate, anti-phosphotyrosine blot) [1] [fold] | tyrosine phosphorylation of JAK2 (αJAK2 immunoprecipitate, anti-PY blot, densitometry normalised to JAK2) [2] [%] | Substance |
| --- | --- | --- |
| 3 | – | HA-tagged SH2-Bβc (expressed in COS cells) |
| – | 90 | Myc-tagged SH2-Bβn (truncated at amino acid 555, lacks the SH2 domain) |
